Test system: IGF-1
Assay: Serum IGF-1 levels in cynomolgus monkeys after a single antibody dose
Type: in vivo, cynomolgus monkey
Description: Serum samples were analyzed for changes in IGF-1 levels compared to baseline using an R&D Systems™ Quantikine™ human IGF-1 immunoassay kit (cat. #DG100).
To determine if GHR antagonist monoclonal antibodies can affect IGF-1, IGFBP-3, and ALS levels in vivo by inhibiting the function of GHR, the effect of humanized anti-human GHR antibody SS1 was tested in cynomolgus monkeys. A dose-response study was conducted to test for changes in IGF-1, IGFBP-3, and ALS levels following a single dose of SS1. Eight naïve female cynomolgus monkeys were injected intravenously with a single dose of SS1 or negative control human IgG2, in 1×PBS 0.01% Tween™ 20. Two monkeys were dosed with 30 mg/kg SS1, two were dosed with 10 mg/kg SS1, two were dosed with 3 mg/kg SS1, and two were dosed with 30 mg/kg negative control human IgG2Δa on Day 1. Serum samples were taken from all animals at the following timepoints: pre-dose, 24 h, 48 h, 72 h, 120 h, 144 h, 192 h, 240 h, 336 h, 528 h, 696 h. Serum was also taken from the 30 mg/kg SS1 and negative control treated animals at 864 h post-dose.
Six naïve female cynomolgus monkeys were injected either intravenously or subcutaneously with a single dose of […] or negative control human IgG2Δa in 1×PBS 0.01% Tween™ 20. Two monkeys were dosed with 3 mg/kg SS1 intravenously, two were dosed with 3 mg/kg SS1 subcutaneously, and two were dosed with 3 mg/kg negative control human IgG2Δa subcutaneously on Day 1. Serum samples were taken from all animals at the following timepoints: pre-dose, 24 h, 72 h, 120 h, 168 h, 216 h, 264 h, 312 h, 360 h, 408 h, 456 h and 504 h.

B1: SS1: humanized GHR antagonist antibody; VL SEQ ID NO: 7, VH SEQ ID NO: 8; hIgG2Δa heavy chain SEQ ID NO: 134, light chain SEQ ID NO: 135 (antibody)
heavy: EVQLVESGGGLVKPGGSLRLSCAASGFTFSDAWMDWVRQAPGKGLEWVAEIRSKANYHATYYAESVKGRFTISRDDSKNTLYLQMNSLKTEDTAVYYCTLIRDYWGQGTLVTVSSASTKGPSVFPLAPCSRSTSESTAALGCLVKDYFPEPVTVSWNSGALTSGVHTFPAVLQSSGLYSLSSVVTVPSSNFGTQTYTCNVDHKPSNTKVDKTVERKCCVECPPCPAPPVAGPSVFLFPPKPKDTLMISRTPEVTCVVVDVSHEDPEVQFNWYVDGVEVHNAKTKPREEQFNSTFRVVSVLTVVHQDWLNGKEYKCKVSNKGLPSSIEKTISKTKGQPREPQVYTLPPSREEMTKNQVSLTCLVKGFYPSDIAVEWESNGQPENNYKTTPPMLDSDGSFFLYSKLTVDKSRWQQGNVFSCSVMHEALHNHYTQKSLSLSPGK
light: EIVLTQSPGTLSLSPGERATLSCTATSSVSSSYLNWYQQKPGQAPRLLIYSTSNLASGIPDRFSGSGSGTDFTLTISRLEPEDFAVYYCHQYHRSTPTFGGGTKVEIKRTVAAPSVFIFPPSDEQLKSGTASVVCLLNNFYPREAKVQWKVDNALQSGNSQESVTEQDSKDSTYSLSSTLTLSKADYEKHKVYACEVTHQGLSSPVTKSFNRGEC
modifications: Humanized and/or affinity matured antibody sequence
- serum IGF-1 levels (% change from baseline) (Table 10, cynomolgus monkeys, SS1 3 mg/kg IV single dose, 24 h post-injection): −43.6 +/− 0.5%
- serum IGF-1 levels (% change from baseline) (Table 10, cynomolgus monkeys, SS1 3 mg/kg IV single dose, 48 h post-injection): −66.6 +/− 1.1%
- serum IGF-1 levels (% change from baseline) (Table 10, cynomolgus monkeys, SS1 3 mg/kg IV single dose, 72 h post-injection): −67.1 +/− 1.6%
- serum IGF-1 levels (% change from baseline) (Table 10, cynomolgus monkeys, SS1 3 mg/kg IV single dose, 120 h post-injection): −76.2 +/− 7.9%
- serum IGF-1 levels (% change from baseline) (Table 10, cynomolgus monkeys, SS1 3 mg/kg IV single dose, 144 h post-injection): −68.4 +/− 1.1%
- serum IGF-1 levels (% change from baseline) (Table 10, cynomolgus monkeys, SS1 3 mg/kg IV single dose, 192 h post-injection): −65.2 +/− 3.0%
- serum IGF-1 levels (% change from baseline) (Table 10, cynomolgus monkeys, SS1 3 mg/kg IV single dose, 240 h post-injection): −34.5 +/− 17.8%
- serum IGF-1 levels (% change from baseline) (Table 10, cynomolgus monkeys, SS1 3 mg/kg IV single dose, 336 h post-injection): 64.2 +/− 0.6%
- serum IGF-1 levels (% change from baseline) (Table 10, cynomolgus monkeys, SS1 3 mg/kg IV single dose, 528 h post-injection): 85.1 +/− 46.0%
- serum IGF-1 levels (% change from baseline) (Table 10, cynomolgus monkeys, SS1 3 mg/kg IV single dose, 696 h post-injection): 49.2 +/− 11.3%
- serum IGF-1 levels (% change from baseline) (Table 10, cynomolgus monkeys, SS1 10 mg/kg IV single dose, 24 h post-injection): −43.4 +/− 2.2%
- serum IGF-1 levels (% change from baseline) (Table 10, cynomolgus monkeys, SS1 10 mg/kg IV single dose, 48 h post-injection): −62.6 +/− 5.5%
- serum IGF-1 levels (% change from baseline) (Table 10, cynomolgus monkeys, SS1 10 mg/kg IV single dose, 72 h post-injection): −67.1 +/− 4.7%
- serum IGF-1 levels (% change from baseline) (Table 10, cynomolgus monkeys, SS1 10 mg/kg IV single dose, 120 h post-injection): −73.5 +/− 2.1%
- serum IGF-1 levels (% change from baseline) (Table 10, cynomolgus monkeys, SS1 10 mg/kg IV single dose, 144 h post-injection): −76.0 +/− 0.1%
- serum IGF-1 levels (% change from baseline) (Table 10, cynomolgus monkeys, SS1 10 mg/kg IV single dose, 192 h post-injection): −74.0 +/− 0.2%
- serum IGF-1 levels (% change from baseline) (Table 10, cynomolgus monkeys, SS1 10 mg/kg IV single dose, 240 h post-injection): −70.9 +/− 1.9%
- serum IGF-1 levels (% change from baseline) (Table 10, cynomolgus monkeys, SS1 10 mg/kg IV single dose, 336 h post-injection): −61.4 +/− 0.6%
- serum IGF-1 levels (% change from baseline) (Table 10, cynomolgus monkeys, SS1 10 mg/kg IV single dose, 528 h post-injection): 25.7 +/− 11.8%
- serum IGF-1 levels (% change from baseline) (Table 10, cynomolgus monkeys, SS1 10 mg/kg IV single dose, 696 h post-injection): 31.7 +/− 15.2%
- serum IGF-1 levels (% change from baseline) (Table 10, cynomolgus monkeys, SS1 30 mg/kg IV single dose, 24 h post-injection): −43.2 +/− 3.0%
- serum IGF-1 levels (% change from baseline) (Table 10, cynomolgus monkeys, SS1 30 mg/kg IV single dose, 48 h post-injection): −63.2 +/− 5.0%
- serum IGF-1 levels (% change from baseline) (Table 10, cynomolgus monkeys, SS1 30 mg/kg IV single dose, 72 h post-injection): −68.5 +/− 5.8%
- serum IGF-1 levels (% change from baseline) (Table 10, cynomolgus monkeys, SS1 30 mg/kg IV single dose, 120 h post-injection): −75.2 +/− 5.2%
- serum IGF-1 levels (% change from baseline) (Table 10, cynomolgus monkeys, SS1 30 mg/kg IV single dose, 144 h post-injection): −77.5 +/− 5.6%
- serum IGF-1 levels (% change from baseline) (Table 10, cynomolgus monkeys, SS1 30 mg/kg IV single dose, 192 h post-injection): −77.2 +/− 3.3%
- serum IGF-1 levels (% change from baseline) (Table 10, cynomolgus monkeys, SS1 30 mg/kg IV single dose, 240 h post-injection): −74.8 +/− 3.4%
- serum IGF-1 levels (% change from baseline) (Table 10, cynomolgus monkeys, SS1 30 mg/kg IV single dose, 336 h post-injection): −73.3 +/− 0.7%
- serum IGF-1 levels (% change from baseline) (Table 10, cynomolgus monkeys, SS1 30 mg/kg IV single dose, 528 h post-injection): −73.0 +/− 0.9%
- serum IGF-1 levels (% change from baseline) (Table 10, cynomolgus monkeys, SS1 30 mg/kg IV single dose, 696 h post-injection): −70.4 +/− 1.1%
- serum IGF-1 levels (% change from baseline) (Table 10, cynomolgus monkeys, SS1 30 mg/kg IV single dose, 864 h post-injection): −8.8 +/− 2.9%
- serum IGF-1 levels (% change from baseline) (Table 13, cynomolgus monkeys, SS1 3 mg/kg IV single dose, 24 hour post-injection): −35 +/− 4.4%
- serum IGF-1 levels (% change from baseline) (Table 13, cynomolgus monkeys, SS1 3 mg/kg IV single dose, 72 hour post-injection): −64.8 +/− 2.7%
- serum IGF-1 levels (% change from baseline) (Table 13, cynomolgus monkeys, SS1 3 mg/kg IV single dose, 120 hour post-injection): −71.6 +/− 1.8%
- serum IGF-1 levels (% change from baseline) (Table 13, cynomolgus monkeys, SS1 3 mg/kg IV single dose, 168 hour post-injection): −70.2 +/− 2.7%
- serum IGF-1 levels (% change from baseline) (Table 13, cynomolgus monkeys, SS1 3 mg/kg IV single dose, 216 hour post-injection): −64.5%
- serum IGF-1 levels (% change from baseline) (Table 13, cynomolgus monkeys, SS1 3 mg/kg IV single dose, 264 hour post-injection): −36.0%
- serum IGF-1 levels (% change from baseline) (Table 13, cynomolgus monkeys, SS1 3 mg/kg IV single dose, 312 hour post-injection): −30.3%
- serum IGF-1 levels (% change from baseline) (Table 13, cynomolgus monkeys, SS1 3 mg/kg IV single dose, 360 hour post-injection): −27.8%
- serum IGF-1 levels (% change from baseline) (Table 13, cynomolgus monkeys, SS1 3 mg/kg SQ single dose, 24 hour post-injection): −46.7 +/− 9.9%
- serum IGF-1 levels (% change from baseline) (Table 13, cynomolgus monkeys, SS1 3 mg/kg SQ single dose, 72 hour post-injection): −62.5 +/− 2.5%
- serum IGF-1 levels (% change from baseline) (Table 13, cynomolgus monkeys, SS1 3 mg/kg SQ single dose, 120 hour post-injection): −68.7 +/− 2.8%
- serum IGF-1 levels (% change from baseline) (Table 13, cynomolgus monkeys, SS1 3 mg/kg SQ single dose, 168 hour post-injection): −65.6 +/− 4.1%
- serum IGF-1 levels (% change from baseline) (Table 13, cynomolgus monkeys, SS1 3 mg/kg SQ single dose, 216 hour post-injection): −60.7%
- serum IGF-1 levels (% change from baseline) (Table 13, cynomolgus monkeys, SS1 3 mg/kg SQ single dose, 264 hour post-injection): −40.9%
- serum IGF-1 levels (% change from baseline) (Table 13, cynomolgus monkeys, SS1 3 mg/kg SQ single dose, 312 hour post-injection): −15.3%
- serum IGF-1 levels (% change from baseline) (Table 13, cynomolgus monkeys, SS1 3 mg/kg SQ single dose, 360 hour post-injection): −4.2%
- time until which serum IGF-1 remained below 60% baseline levels (cynomolgus monkeys, 3 mg/kg SS1 either SQ or IV): about 216 hour
- time until which serum IGF-1 remained substantially lower than baseline (cynomolgus monkeys, SS1 3 mg/kg IV single dose): 240 h
- time until which serum IGF-1 remained substantially lower than baseline (cynomolgus monkeys, SS1 10 mg/kg IV single dose): 336 h
- time until which serum IGF-1 remained substantially lower than baseline (cynomolgus monkeys, SS1 30 mg/kg IV single dose): 696 h
- serum IGF-1 decrease below baseline levels (cynomolgus monkeys, single IV dose of 3, 10 or 30 mg/kg SS1, by 120 hours): about 75%
- serum IGF-1 decrease below control (cynomolgus monkeys, single dose 3 mg/kg SS1 subcutaneous (SC) or intravenous (IV), by 72 hours): about 63%
- effect on serum IGF-1 levels in cynomolgus monkeys (single IV dose, dose-response): dose dependently reduces serum IGF-1 levels
